Biological target: HLA-DR on BJAB cells (human (endogenous in BJAB))
Assay: flow cytometry on cells; full antibody titration of purified IgGs on HLA-DR-expressing BJAB cells, Fc Block, 1 h at 4 °C, detected with AF488 goat anti-human IgG Fcγ; also after storage of the IgGs at -20, 4 or 40 °C for up to 4 weeks

fold difference in EC50 against parental 44H10: > 50 fold
B1: humanized 44H10 version 17 IgG (antibody, V domains shown)
VH: QVTLKESGPVLVKPTETLTLTCTVSGFSLTSYGVHWIRQPPGKALEWLAVIWAGGSISYSTSLMSRLTISKDTSKSQVVLTMTNMDPVDTATYYCARAYGDYVHYAMDYWGQGTLVTVSS
VL: DIQMTQSPSSLSASVGDRVTITCRASQEISGYLTWLQQKPGKAPKLLIYAASTLDSGVPSRFSGSGSGTDFTLTISSLQPEDFATYYCLQYTNYPLTFGQGTKLEIK
